Data: article doi:10.1101/2020.08.19.257725 (bioRxiv, 2020)

Assays:
[1] = biological target: T1, mouse albumin (Mus musculus, UniProt P07724); experiment: ELISA
[2] = biological target: T2, Human serum albumin (Homo sapiens, UniProt P02768); experiment: SPR
[3] = biological target: T2, Human serum albumin; experiment: pull-down
[4] = biological target: cynomolgus monkey albumin (Macaca fascicularis, UniProt A2V9Z4); experiment: pull-down
[5] = biological target: T1, mouse albumin; experiment: pull-down

T1 sequence (P07724 25-608): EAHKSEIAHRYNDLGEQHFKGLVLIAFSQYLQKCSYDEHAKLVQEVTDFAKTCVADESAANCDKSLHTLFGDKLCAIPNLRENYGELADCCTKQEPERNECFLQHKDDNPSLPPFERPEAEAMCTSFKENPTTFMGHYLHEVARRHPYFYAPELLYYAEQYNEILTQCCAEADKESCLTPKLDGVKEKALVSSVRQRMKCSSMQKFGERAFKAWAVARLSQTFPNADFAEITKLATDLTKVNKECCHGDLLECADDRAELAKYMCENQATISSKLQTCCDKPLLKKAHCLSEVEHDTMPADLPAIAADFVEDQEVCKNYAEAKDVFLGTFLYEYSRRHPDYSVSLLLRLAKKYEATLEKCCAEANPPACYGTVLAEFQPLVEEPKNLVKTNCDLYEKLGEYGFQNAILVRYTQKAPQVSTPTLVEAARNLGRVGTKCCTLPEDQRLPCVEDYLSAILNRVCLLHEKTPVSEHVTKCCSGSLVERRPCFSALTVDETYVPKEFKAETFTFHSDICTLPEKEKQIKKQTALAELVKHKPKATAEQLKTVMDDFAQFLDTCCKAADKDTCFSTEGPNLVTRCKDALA
Sequence of cynomolgus monkey albumin (A2V9Z4 25-608): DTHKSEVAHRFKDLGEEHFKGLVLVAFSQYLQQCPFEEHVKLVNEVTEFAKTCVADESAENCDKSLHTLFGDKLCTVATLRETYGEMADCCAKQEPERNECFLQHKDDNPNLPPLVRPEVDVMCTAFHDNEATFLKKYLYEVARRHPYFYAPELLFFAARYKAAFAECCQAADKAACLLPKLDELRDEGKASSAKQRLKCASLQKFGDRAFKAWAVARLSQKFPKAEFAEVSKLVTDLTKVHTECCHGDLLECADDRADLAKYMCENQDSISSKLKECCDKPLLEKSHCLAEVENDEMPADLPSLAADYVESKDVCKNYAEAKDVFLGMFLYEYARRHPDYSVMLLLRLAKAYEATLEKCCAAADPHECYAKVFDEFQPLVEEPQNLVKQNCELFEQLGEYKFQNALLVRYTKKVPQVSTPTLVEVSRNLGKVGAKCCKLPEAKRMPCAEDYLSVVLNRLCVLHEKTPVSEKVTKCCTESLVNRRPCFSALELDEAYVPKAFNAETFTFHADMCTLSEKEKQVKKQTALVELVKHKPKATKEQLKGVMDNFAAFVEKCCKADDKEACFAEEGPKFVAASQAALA

Row | binding result [1] | Kd [2] [nM] | Binder | further results
1 | binds |  | Nb77 (VHH) VHH: QVQLVESGGGLVQAGGSLRLSCTASGRTYEPLVMGWFRQAPGKEREFVATITPSGGSLSYADSVKGRFTVSRDNAKKTVYLQMNRLQPEDTAVYYCAAAPGVGNYRYTRQYDYWGQGTQVTVSE | 
2 |  | 0.201 | Nb13 (VHH) VHH: HVQLVESGGELVQAGGSLRLSCAASGRTFSNYAMGWFRQAPGTEREFVAAISRSGGSTYYADSVKGRFIISRDNAKNTVWLQMNMLKPEDTSVYYCAAAEGLASGSYDYAPPLKSSWYDYWGQGTQVTVSE | 
3 |  |  | Nb132 (VHH) VHH: HVQLVESGGGLVQAGGSLRLSCAASGGTISNYGMGWLRQGPGKEREFVGSINWNGATTHYADSVKGRFIISRDNAKNTVYLQMNSLKPEDTGVYYCVAQFSVQPTLRTYDYGGQGTQVTVSE | binding result [3]: binds; binding result [4]: binds; binding result [5]: binds
4 |  | 0.251 | Nb126 (VHH) VHH: QVQLVESGGGLVQAGGSLRLSCAASGLTFSNYVMGWFRQAPGKEREFVAYIHWSGGRILYADSVKGRFTISRDNTKNTMYLQMNSLKPDDTAVYYCTADQYATTVLRAAGEYWGQGTQVTVSE | 
5 | binds | 0.166 | Nb80 (VHH) VHH: EVQLVESGGGLVQAGGSLRLSCTASGRTFTPYTMGWFRQAPGKEREFVASILWSGNNRDYADSVKGRFAISRDNAKNTAYLQMTSLKPEDTAVYYCAAGDGLGFYRSVNQYDYWGQGTQVTVS | 
